Measurements published in publication PMC3026963 (The Biochemical journal, 2010).

Target: protein kinase CK2 catalytic subunit α (human, UniProt P68400 1-391)
Experiment: SEC

Chain of protein kinase CK2 catalytic subunit α (P68400 whole entry): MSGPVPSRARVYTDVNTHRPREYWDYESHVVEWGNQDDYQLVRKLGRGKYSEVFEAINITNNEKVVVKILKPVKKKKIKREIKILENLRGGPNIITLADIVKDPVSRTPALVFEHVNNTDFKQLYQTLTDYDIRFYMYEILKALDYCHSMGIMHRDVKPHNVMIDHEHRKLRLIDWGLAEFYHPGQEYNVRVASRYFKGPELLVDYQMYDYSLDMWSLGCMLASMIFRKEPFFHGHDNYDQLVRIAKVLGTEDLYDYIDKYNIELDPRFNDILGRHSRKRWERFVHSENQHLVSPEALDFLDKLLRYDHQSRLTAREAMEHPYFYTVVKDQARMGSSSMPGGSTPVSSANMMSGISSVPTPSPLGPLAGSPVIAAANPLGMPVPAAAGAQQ

B1: protein kinase CK2 non-catalytic subunit β (natural protein)
chain: not shown
**Q.** Does B1 bind?
**A.** binds
